This is an account of results in paper PMC10572589.

Assay [1] concerns the target thermostable GHF11 xylanase AusM (Aspergillus usamii E001 (parent AuXyn11A)).
Assay [2] concerns the target AusM^N127A (Aspergillus usamii E001 (parent AuXyn11A)).

B1: xylanase inhibitor protein SyXIP-I (natural protein)
chain: AGGKTGQVTVFWGRNKAEGSLREACDSGMYTMVTMSFLDVFGANGKYHLDLSGHDLSSVGADIKHCQSKGVPVSLSIGGYGTGYSLPSNRSALDLFDHLWNSYFGGSKPSVPRPFGDAWLDGVDLFLEHGTPADRYDVLALELAKHNIRGGPGKPLHLTATVRCGYPPAAHVGRALATGIFERVHVRTYESDKWCNQNLGWEGSWDKWTAAYPATRFYVGLTADDKSHQWVHPKNVYYGVAPVAQKKDNYGGIMLWDRYFDKQTNYSSLIKYYA
With B1, in assay [1], the molar excess of SyXIP-I over AusM needed for almost complete inhibition of xylanase activity (mol SyXIP-I per mol AusM) was > 80 and the molar ratio of SyXIP-I to AusM at which the inhibition rate of xylanase activity reached 50% (birchwood xylan, pH 4.6, 50 °C) (mol SyXIP-I per mol AusM) was 7. The residual xylanase activity at a molar ratio of SyXIP-I/xylanase of 100:1 (% of initial activity) in assay [2] stood at 62.7.
